For this assay, the target named is S107-encoded IgG (monoclonal antibody bound by the Fab-binding site of SpA). Kind of assay: ELISA.

In turn, “monomeric domain D′ of SpA (domain or fragment)” showed a Fab-binding (relative activity in the inhibition immunoassay) of 0.01 M.

The values above are taken from paper PMC1887708.
